Assay results published in PMC2756588.

T1: Boi2, P39969
T1 sequence (P39969 32-116, looked up): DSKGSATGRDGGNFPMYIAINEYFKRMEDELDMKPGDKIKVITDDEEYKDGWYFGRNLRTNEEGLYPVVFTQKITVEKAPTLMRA

T2: Lsb4, P32793
T2 sequence (P32793 402-468, looked up): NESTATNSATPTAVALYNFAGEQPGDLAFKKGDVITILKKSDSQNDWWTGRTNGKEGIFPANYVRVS

T3: Cyk3, Q07533
T3 sequence (Q07533 1-83, looked up): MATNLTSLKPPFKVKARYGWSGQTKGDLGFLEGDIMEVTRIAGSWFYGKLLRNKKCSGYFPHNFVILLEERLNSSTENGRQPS

T4: Nbp2, Q12163
T4 sequence (Q12163 103-180, looked up): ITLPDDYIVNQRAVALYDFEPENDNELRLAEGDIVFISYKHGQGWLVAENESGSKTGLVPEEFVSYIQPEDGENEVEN

T5: Sla1-3, P32790
T5 sequence (P32790 344-424, looked up): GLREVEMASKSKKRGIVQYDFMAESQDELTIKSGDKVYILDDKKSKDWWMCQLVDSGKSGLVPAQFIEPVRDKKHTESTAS

T6: Fus1, P11710
T6 sequence (P11710 432-512, looked up): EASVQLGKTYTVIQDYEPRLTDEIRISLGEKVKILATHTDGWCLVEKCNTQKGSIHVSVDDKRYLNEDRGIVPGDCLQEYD

T7: Bbc1, P47068
T7 sequence (P47068 1-78, looked up): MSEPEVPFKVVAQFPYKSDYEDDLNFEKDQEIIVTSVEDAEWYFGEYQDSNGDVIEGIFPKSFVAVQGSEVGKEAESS

T8: Hse1, P38753
T8 sequence (P38753 208-285, looked up): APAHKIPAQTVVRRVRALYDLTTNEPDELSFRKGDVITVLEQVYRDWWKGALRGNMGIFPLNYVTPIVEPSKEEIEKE

T9: Bzz1-2, P38822
T9 sequence (P38822 568-633, looked up): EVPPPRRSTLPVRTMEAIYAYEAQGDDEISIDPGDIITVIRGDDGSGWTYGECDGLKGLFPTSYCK

T10: Bzz1-1, P38822
T10 sequence (P38822 478-572, looked up): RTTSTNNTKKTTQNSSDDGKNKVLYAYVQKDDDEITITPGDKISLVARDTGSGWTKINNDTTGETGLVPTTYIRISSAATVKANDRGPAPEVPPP

T11: Bud14, P27637
T11 sequence (P27637 247-328, looked up): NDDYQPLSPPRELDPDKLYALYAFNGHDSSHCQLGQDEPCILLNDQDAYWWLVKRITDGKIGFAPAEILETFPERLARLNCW

T12: Pin3, Q06449
T12 sequence (Q06449 53-122, looked up): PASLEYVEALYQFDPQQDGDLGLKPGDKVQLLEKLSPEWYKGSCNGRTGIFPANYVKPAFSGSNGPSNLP

T13: Pex13, P80667
T13 sequence (P80667 295-386, looked up): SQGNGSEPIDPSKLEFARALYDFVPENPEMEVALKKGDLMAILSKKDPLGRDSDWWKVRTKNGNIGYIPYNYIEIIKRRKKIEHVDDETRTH

T14: Hof1, Q05080
T14 sequence (Q05080 590-669, looked up): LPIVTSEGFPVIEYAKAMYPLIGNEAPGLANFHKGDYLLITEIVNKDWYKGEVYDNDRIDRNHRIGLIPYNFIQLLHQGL

T15: Myo5, Q04439
T15 sequence (Q04439 1072-1160, looked up): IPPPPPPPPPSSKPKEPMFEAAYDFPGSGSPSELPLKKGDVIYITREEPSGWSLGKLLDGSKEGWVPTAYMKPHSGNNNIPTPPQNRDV

T16: Boi1, P38041
T16 sequence (P38041 1-86, looked up): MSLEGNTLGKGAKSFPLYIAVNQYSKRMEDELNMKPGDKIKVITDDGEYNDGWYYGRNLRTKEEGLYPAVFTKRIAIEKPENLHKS

T17: Sla1-2, P32790
T17 sequence (P32790 60-140, looked up): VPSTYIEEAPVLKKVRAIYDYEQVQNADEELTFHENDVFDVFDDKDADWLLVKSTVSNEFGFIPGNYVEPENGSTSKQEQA

T18: Lsb1, P53281
T18 sequence (P53281 45-122, looked up): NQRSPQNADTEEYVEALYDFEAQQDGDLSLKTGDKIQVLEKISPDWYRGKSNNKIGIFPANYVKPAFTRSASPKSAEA

T19: Abp1, P15891
T19 sequence (P15891 535-592, looked up): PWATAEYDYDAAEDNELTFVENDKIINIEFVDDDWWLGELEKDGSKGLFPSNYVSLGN

T20: Lsb3, P43603
T20 sequence (P43603 385-451, looked up): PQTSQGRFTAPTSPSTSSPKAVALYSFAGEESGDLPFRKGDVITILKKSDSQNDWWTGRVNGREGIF

T21: Cdc25, P04821
T21 sequence (P04821 50-136, looked up): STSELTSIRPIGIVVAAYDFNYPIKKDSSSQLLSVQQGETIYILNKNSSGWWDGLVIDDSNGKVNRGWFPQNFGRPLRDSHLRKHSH


Assays:
Experiment in all cases: SPOT array
[1] = molecular target: T1, Boi2, P39969; details: median of control spots 1161
[2] = molecular target: T2, Lsb4, P32793; details: median of control spots 397
[3] = molecular target: T3, Cyk3, Q07533; details: median of control spots 1451
[4] = molecular target: Myo3, P36006; details: median of control spots 468
[5] = molecular target: T4, Nbp2, Q12163; details: median of control spots 357
[6] = molecular target: Bem1-1, P29366; details: median of control spots 4282
[7] = molecular target: T5, Sla1-3, P32790; details: median of control spots 5475
[8] = molecular target: T6, Fus1, P11710; details: median of control spots 1200
[9] = molecular target: T7, Bbc1, P47068; details: median of control spots 796
[10] = molecular target: T8, Hse1, P38753; details: median of control spots 1727
[11] = molecular target: T9, Bzz1-2, P38822; details: median of control spots 4538
[12] = molecular target: T10, Bzz1-1, P38822; details: median of control spots 4446
[13] = molecular target: T11, Bud14, P27637; details: median of control spots 956
[14] = molecular target: T12, Pin3, Q06449; details: median of control spots 2171
[15] = molecular target: T13, Pex13, P80667; details: median of control spots 1341
[16] = molecular target: T14, Hof1, Q05080; details: median of control spots 4086
[17] = molecular target: T15, Myo5, Q04439; details: median of control spots 471
[18] = molecular target: T16, Boi1, P38041; details: median of control spots 1162
[19] = molecular target: Bem1-2, P29366; details: median of control spots 4347
[20] = molecular target: Sho1, P40073; details: median of control spots 1148
[21] = molecular target: Rvs167, P39743; details: median of control spots 2707
[22] = molecular target: T17, Sla1-2, P32790; details: median of control spots 712
[23] = molecular target: GST; details: median of control spots 978
[24] = molecular target: T18, Lsb1, P53281; details: median of control spots 388
[25] = molecular target: T19, Abp1, P15891; details: median of control spots 935
[26] = molecular target: T20, Lsb3, P43603; details: median of control spots 406
[27] = molecular target: T21, Cdc25, P04821; details: median of control spots 969

Chain of Bem1-2, P29366 (P29366 139-227): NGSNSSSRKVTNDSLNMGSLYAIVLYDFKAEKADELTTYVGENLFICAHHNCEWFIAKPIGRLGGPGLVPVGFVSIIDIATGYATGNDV
Chain of Sho1, P40073 (P40073 287-367): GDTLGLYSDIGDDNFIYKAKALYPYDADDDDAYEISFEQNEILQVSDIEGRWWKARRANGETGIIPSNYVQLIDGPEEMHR
Chain of Rvs167, P39743 (P39743 419-482): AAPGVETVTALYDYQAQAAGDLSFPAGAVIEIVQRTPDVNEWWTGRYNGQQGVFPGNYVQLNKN
Chain of Bem1-1, P29366 (P29366 55-141): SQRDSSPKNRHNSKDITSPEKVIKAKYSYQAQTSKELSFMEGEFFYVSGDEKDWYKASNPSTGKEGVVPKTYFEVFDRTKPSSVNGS

Binder	SPOT intensity [1]	SPOT intensity [2]	SPOT intensity [3]	SPOT intensity [4]	SPOT intensity [5]	SPOT intensity [6]	SPOT intensity [7]	SPOT intensity [8]	SPOT intensity [9]	SPOT intensity [10]	SPOT intensity [11]	SPOT intensity [12]	SPOT intensity [13]	SPOT intensity [14]	SPOT intensity [15]	SPOT intensity [16]	SPOT intensity [17]	SPOT intensity [18]	SPOT intensity [19]	SPOT intensity [20]	other results
VPPPMQPPPIESSNL	0	48	1	318	6	0	0	1	0	0	0	0	0	114	27	0	167	1	0	0	SPOT intensity [21]: 0; SPOT intensity [22]: 2; SPOT intensity [23]: 0; SPOT intensity [24]: 99; SPOT intensity [25]: 85; SPOT intensity [26]: 0; SPOT intensity [27]: 0
DLPLPDLPPEPPTEL	1	0	0	262	0	3	0	0	0	0	0	0	0	0	0	566	101	2	0	0	SPOT intensity [21]: 0; SPOT intensity [22]: 0; SPOT intensity [23]: 1; SPOT intensity [24]: 0; SPOT intensity [25]: 0; SPOT intensity [26]: 0; SPOT intensity [27]: 2
FTLPPPPPPPGLDEL	0	0	2	455	0	0	0	0	0	0	0	7	0	0	13	116	234	0	0	0	SPOT intensity [21]: 0; SPOT intensity [22]: 0; SPOT intensity [23]: 1; SPOT intensity [24]: 0; SPOT intensity [25]: 0; SPOT intensity [26]: 0; SPOT intensity [27]: 0
DFTLPPPPPPPGLDE	0	0	0	345	3	0	0	0	0	0	0	0	0	0	0	6	306	0	1	0	SPOT intensity [21]: 0; SPOT intensity [22]: 0; SPOT intensity [23]: 1; SPOT intensity [24]: 0; SPOT intensity [25]: 0; SPOT intensity [26]: 0; SPOT intensity [27]: 0
